{"source": "patent US20210040184A1", "about": "(ATRECA, published 2021)", "binders": {"B1": {"name": "NVS49-L1A2 (antibody, V domains shown)", "VH": "ADLVQSGAVVKKPGDSVRISCEAQGYRFPDYIIHWIRRAPGQGPEWMGWMNPMGGQVNIPWKFQGRVSMTRDTSIETAFLDLRGLKSDDTAVYYCVRDRSNGSGKRFESSNWFLDLWGRGTAVTIQS", "VL": "QSALTQPRSVSASPGQSVTISCTGTHNLVSWCQHQPGRAPKLLIYDFNKRPSGVPDRFSGSGSGGTASLTITGLQDDDDAEYFCWAYEAFGGGTKLTVL"}, "B2": {"name": "NglycoND (antibody, V domains shown)", "VH": "B1 VH with N101D", "VL": "B1 VL"}}, "experiment_in_all_cases": "cell-based or functional assay", "key": {"[1]": {"molecular_target": "T1, HIV-1 CAP45.2.00.G3 envelope (Env) on Env.IMC.LucR virus (HIV-1 clade C)"}, "[2]": {"molecular_target": "HIV-1 THRO4156.18 envelope (Env) on Env.IMC.LucR virus (HIV-1 clade B)"}, "[3]": {"molecular_target": "T2, HIV-1 DU422.1 envelope (Env) on Env.IMC.LucR virus (HIV-1 clade C)"}, "[4]": {"molecular_target": "HIV-1 ZM233M.PB6 envelope (Env) on Env.IMC.LucR virus (HIV-1 clade C)"}, "[5]": {"molecular_target": "T3, HIV-1 DU172.17 envelope (Env) on Env.IMC.LucR virus (HIV-1 clade C)"}, "[6]": {"molecular_target": "T4, HIV-1 X1632_S2_B10 envelope (Env) on Env.IMC.LucR virus (HIV-1 clade G)"}, "[7]": {"molecular_target": "T5, HIV-1 REJO4541.67 envelope (Env) on Env.IMC.LucR virus (HIV-1 clade B)"}, "[8]": {"molecular_target": "T6, HIV-1 CNE20 envelope (Env) on Env.IMC.LucR virus (HIV-1 clade BC)"}, "[9]": {"molecular_target": "T7, HIV-1 AC10.0.29 envelope (Env) on Env.IMC.LucR virus (HIV-1 clade B)"}, "[10]": {"molecular_target": "HIV-1 WITO4160.33 envelope (Env) on Env.IMC.LucR virus (HIV-1 clade B)"}, "[11]": {"molecular_target": "T1, HIV-1 CAP45.2.00.G3 envelope (Env) on …", "remark": "listed apart in the source"}, "[12]": {"molecular_target": "T2, HIV-1 DU422.1 envelope (Env) on …", "remark": "listed apart in the source"}, "[13]": {"molecular_target": "T3, HIV-1 DU172.17 envelope (Env) on …", "remark": "listed apart in the source"}, "[14]": {"molecular_target": "T4, HIV-1 X1632_S2_B10 envelope (Env) on …", "remark": "listed apart in the source"}, "[15]": {"molecular_target": "T5, HIV-1 REJO4541.67 envelope (Env) on …", "remark": "listed apart in the source"}, "[16]": {"molecular_target": "T6, HIV-1 CNE20 envelope (Env) on …", "remark": "listed apart in the source"}, "[17]": {"molecular_target": "T7, HIV-1 AC10.0.29 envelope (Env) on …", "remark": "listed apart in the source"}, "[18]": {"molecular_target": "T3, HIV-1 DU172.17 envelope (Env) on …", "remark": "listed apart in the source"}}, "note": "Numbering of substitutions follows the chain as printed."}
{"binder": "B1", "values": [{"measurement": "IC50 of virus neutralization (TZM-BL, luciferase)", "setting": "[1]", "result": 0.209, "unit": "µg/mL"}, {"measurement": "IC50 of virus neutralization (TZM-BL, luciferase)", "setting": "[2]", "result": 1.04, "unit": "µg/mL"}, {"measurement": "IC50 of virus neutralization (TZM-BL, luciferase)", "setting": "[3]", "result": "> 50", "unit": "µg/mL"}, {"measurement": "IC50 of virus neutralization (TZM-BL, luciferase)", "setting": "[4]", "result": 0.613, "unit": "µg/mL"}, {"measurement": "IC50 of virus neutralization (TZM-BL, luciferase)", "setting": "[5]", "result": 0.279, "unit": "µg/mL"}, {"measurement": "IC50 of virus neutralization (TZM-BL, luciferase)", "setting": "[6]", "result": "> 50", "unit": "µg/mL"}, {"measurement": "IC50 of virus neutralization (TZM-BL, luciferase)", "setting": "[7]", "result": 0.072, "unit": "µg/mL"}, {"measurement": "IC50 of virus neutralization (TZM-BL, luciferase)", "setting": "[8]", "result": 0.124, "unit": "µg/mL"}, {"measurement": "IC50 of virus neutralization (TZM-BL, luciferase)", "setting": "[9]", "result": "> 50", "unit": "µg/mL"}, {"measurement": "IC50 of virus neutralization (TZM-BL, luciferase)", "setting": "[10]", "result": 0.2, "unit": "µg/mL"}, {"measurement": "IC50 of virus neutralization (TZM-BL, luciferase); L1A2 lot CRO #1, 293 cells", "setting": "[11]", "result": 0.132, "unit": "µg/mL"}, {"measurement": "IC50 of virus neutralization (TZM-BL, luciferase); L1A2 lot CRO #2, 293 cells", "setting": "[11]", "result": 0.209, "unit": "µg/mL"}, {"measurement": "IC50 of virus neutralization (TZM-BL, luciferase); L1A2 lot CRO #2, CHO cells", "setting": "[11]", "result": 0.162, "unit": "µg/mL"}, {"measurement": "IC50 of virus neutralization (TZM-BL, luciferase); L1A2 lot CRO #1, 293 cells", "setting": "[12]", "result": "> 50", "unit": "µg/mL"}, {"measurement": "IC50 of virus neutralization (TZM-BL, luciferase); L1A2 lot CRO #2, 293 cells", "setting": "[12]", "result": "> 50", "unit": "µg/mL"}, {"measurement": "IC50 of virus neutralization (TZM-BL, luciferase); L1A2 lot CRO #2, CHO cells", "setting": "[12]", "result": "> 50", "unit": "µg/mL"}, {"measurement": "IC50 of virus neutralization (TZM-BL, luciferase); L1A2 lot CRO #1, 293 cells", "setting": "[13]", "result": 0.268, "unit": "µg/mL"}, {"measurement": "IC50 of virus neutralization (TZM-BL, luciferase); L1A2 lot CRO #2, 293 cells", "setting": "[13]", "result": 0.279, "unit": "µg/mL"}, {"measurement": "IC50 of virus neutralization (TZM-BL, luciferase); L1A2 lot CRO #2, CHO cells", "setting": "[13]", "result": 0.507, "unit": "µg/mL"}, {"measurement": "IC50 of virus neutralization (TZM-BL, luciferase); L1A2 lot CRO #1, 293 cells", "setting": "[14]", "result": "> 50", "unit": "µg/mL"}, {"measurement": "IC50 of virus neutralization (TZM-BL, luciferase); L1A2 lot CRO #2, 293 cells", "setting": "[14]", "result": "> 50", "unit": "µg/mL"}, {"measurement": "IC50 of virus neutralization (TZM-BL, luciferase); L1A2 lot CRO #2, CHO cells", "setting": "[14]", "result": "> 50", "unit": "µg/mL"}, {"measurement": "IC50 of virus neutralization (TZM-BL, luciferase); L1A2 lot CRO #1, 293 cells", "setting": "[15]", "result": 0.054, "unit": "µg/mL"}, {"measurement": "IC50 of virus neutralization (TZM-BL, luciferase); L1A2 lot CRO #2, 293 cells", "setting": "[15]", "result": 0.072, "unit": "µg/mL"}, {"measurement": "IC50 of virus neutralization (TZM-BL, luciferase); L1A2 lot CRO #2, CHO cells", "setting": "[15]", "result": 0.045, "unit": "µg/mL"}, {"measurement": "IC50 of virus neutralization (TZM-BL, luciferase); L1A2 lot CRO #1, 293 cells", "setting": "[16]", "result": 0.089, "unit": "µg/mL"}, {"measurement": "IC50 of virus neutralization (TZM-BL, luciferase); L1A2 lot CRO #2, 293 cells", "setting": "[16]", "result": 0.124, "unit": "µg/mL"}, {"measurement": "IC50 of virus neutralization (TZM-BL, luciferase); L1A2 lot CRO #2, CHO cells", "setting": "[16]", "result": 0.092, "unit": "µg/mL"}, {"measurement": "IC50 of virus neutralization (TZM-BL, luciferase); L1A2 lot CRO #1, 293 cells", "setting": "[17]", "result": "> 50", "unit": "µg/mL"}, {"measurement": "IC50 of virus neutralization (TZM-BL, luciferase); L1A2 lot CRO #2, 293 cells", "setting": "[17]", "result": "> 50", "unit": "µg/mL"}, {"measurement": "IC50 of virus neutralization (TZM-BL, luciferase); L1A2 lot CRO #2, CHO cells", "setting": "[17]", "result": "> 50", "unit": "µg/mL"}]}
{"binder": "B2", "values": [{"measurement": "IC50 of virus neutralization (TZM-BL, luciferase)", "setting": "[1]", "result": 0.077, "unit": "µg/mL"}, {"measurement": "IC50 of virus neutralization (TZM-BL, luciferase)", "setting": "[3]", "result": "> 50", "unit": "µg/mL"}, {"measurement": "IC50 of virus neutralization (TZM-BL, luciferase)", "setting": "[5]", "result": 18.3, "unit": "µg/mL"}, {"measurement": "IC50 of virus neutralization (TZM-BL, luciferase)", "setting": "[6]", "result": "> 50", "unit": "µg/mL"}, {"measurement": "IC50 of virus neutralization (TZM-BL, luciferase)", "setting": "[7]", "result": 0.062, "unit": "µg/mL"}, {"measurement": "IC50 of virus neutralization (TZM-BL, luciferase)", "setting": "[8]", "result": "> 50", "unit": "µg/mL"}, {"measurement": "IC50 of virus neutralization (TZM-BL, luciferase)", "setting": "[9]", "result": "> 50", "unit": "µg/mL"}, {"measurement": "fold increase in neutralization IC50 as compared to parent mAb L1A2", "setting": "[18]", "result": "~65", "unit": "fold"}]}
